Results on 10 variants are retold here after publication PMC7954794, “Protein context shapes the specificity of SH3 domain-mediated interactions in vivo” (Nature Communications, 2021).

Where only a bound is given, the exact number is not on record here.

The chains are these.
B1: S. cerevisiae Abp1 (full length; SH3 domain 535-592 mutated) / Hua2 (parent)
chain 1: MALEPIDYTTHSREIDAEYLKIVRGSDPDTTWLIISPNAKKEYEPESTGSSFHDFLQLFDETKVQYGLARVSPPGSDVEKIIIIGWCPDSAPLKTRASFAANFAAVANNLFKGYHVQVTARDEDDLDENELLMKISNAAGARYSIQTSSKQQGKASTPPVKKSFTPSKSPAPVSKKEPVKTPSPAPAAKISSRVNDNNDDDDWNEPELKERDFDQAPLKPNQSSYKPIGKIDLQKVIAEEKAKEDPRLVQKPTAAGSKIDPSSDIANLKNESKLKRDSEFNSFLGTTKPPSMTESSLKNDDDKVIKGFRNEKSPAQLWAERKAKQNSGNAETKAEAPKPEVPEDEPEGEPDVKDLKSKFEGLAASEKEEEEMENKFAPPPKKSEPTIISPKPFSKPQEPVKAEEAEQPKTDYKKIGNPLPGMHIEADNEEEPEENDDDWDDDEDEAAQPPLPSRNVASGAPVQKEEPEQEEIAPSLPSRNSIPAPKQEEAPEQAPEEEIEEEAEEAAPQLPSRSSAAPPPPPRRATPEKKPKENPWATAEYDYDAAEDNELTFVENDKIINIEFVDDDWWLGELEKDGSKGLFPSNYVSLGN
chain 2: MQQTKFGKMYLDHDSVVEYSEDEIVEADRITLGYKKRLSMIENQMRHLLEDFSLDVQQIEPILADLQKYYDAFLQLLQKRNKSLQCKRSTHQPVPSPMNSQTSTNAKVNLSGKLMKFQLNSVQKFDEENILRILQNKIEFEHYFQIDKGKKQKVLLLAVYQCLNGPTRLHKVLNIEGIIHNNSIRTILGKQVSSSKWTVFLYDVKLVLLAHRQDVPNLETSKMIVRYGDLFPCALYFKDHTAY

The variants in this experiment derive from B1. Description: DHFR protein-fragment complementation in yeast (Abp1-DHFR F[1,2] x partner-DHFR F[3]), deep mutational scanning, second methotrexate selection vs reference. The note with it: with Hua2; S. cerevisiae, DHFR-PCA selection in liquid with methotrexate at 30 C, two 72 h selections (the score uses the second); reference = the pre-selection culture; not an affinity; value at the no-binding floor (a bound); scale: DMS score: mean over two replicates of log2(f_test/f_ref + 0.5)/ln 2, minus the synonymous-codon median.
Take chain 1 MALEPIDYTTHSREIDAEYLKIVRGSDPDTTWLIISPNAKKEYEPESTGSSFHDFLQLFDETKVQYGLARVSPPGSDVEKIIIIGWCPDSAPLKTRASFAANFAAVANNLFKGYHVQVTARDEDDLDENELLMKISNAAGARYSIQTSSKQQGKASTPPVKKSFTPSKSPAPVSKKEPVKTPSPAPAAKISSRVNDNNDDDDWNEPELKERDFDQAPLKPNQSSYKPIGKIDLQKVIAEEKAKEDPRLVQKPTAAGSKIDPSSDIANLKNESKLKRDSEFNSFLGTTKPPSMTESSLKNDDDKVIKGFRNEKSPAQLWAERKAKQNSGNAETKAEAPKPEVPEDEPEGEPDVKDLKSKFEGLAASEKEEEEMENKFAPPPKKSEPTIISPKPFSKPQEPVKAEEAEQPKTDYKKIGNPLPGMHIEADNEEEPEENDDDWDDDEDEAAQPPLPSRNVASGAPVQKEEPEQEEIAPSLPSRNSIPAPKQEEAPEQAPEEEIEEEAEEAAPQLPSRSSAAPPPPPRRATPEKKPKENPWATAEYDYDAAEDNELTFVENDKIINIEFVDDDWWLGELEKDGSKGLEPSNYVSLGN [chain 1 F583E]: the screen value is below -3.06. Consider chain 1 MALEPIDYTTHSREIDAEYLKIVRGSDPDTTWLIISPNAKKEYEPESTGSSFHDFLQLFDETKVQYGLARVSPPGSDVEKIIIIGWCPDSAPLKTRASFAANFAAVANNLFKGYHVQVTARDEDDLDENELLMKISNAAGARYSIQTSSKQQGKASTPPVKKSFTPSKSPAPVSKKEPVKTPSPAPAAKISSRVNDNNDDDDWNEPELKERDFDQAPLKPNQSSYKPIGKIDLQKVIAEEKAKEDPRLVQKPTAAGSKIDPSSDIANLKNESKLKRDSEFNSFLGTTKPPSMTESSLKNDDDKVIKGFRNEKSPAQLWAERKAKQNSGNAETKAEAPKPEVPEDEPEGEPDVKDLKSKFEGLAASEKEEEEMENKFAPPPKKSEPTIISPKPFSKPQEPVKAEEAEQPKTDYKKIGNPLPGMHIEADNEEEPEENDDDWDDDEDEAAQPPLPSRNVASGAPVQKEEPEQEEIAPSLPSRNSIPAPKQEEAPEQAPEEEIEEEAEEAAPQLPSRSSAAPPPPPRRATPEKKPKENPWATAEYDYDAAEDNELTFVENDKIINIEFVDDDWWLGELEKDGSKGLMPSNYVSLGN [chain 1 F583M], for which the screen value was below -3.06. The value for chain 1 MALEPIDYTTHSREIDAEYLKIVRGSDPDTTWLIISPNAKKEYEPESTGSSFHDFLQLFDETKVQYGLARVSPPGSDVEKIIIIGWCPDSAPLKTRASFAANFAAVANNLFKGYHVQVTARDEDDLDENELLMKISNAAGARYSIQTSSKQQGKASTPPVKKSFTPSKSPAPVSKKEPVKTPSPAPAAKISSRVNDNNDDDDWNEPELKERDFDQAPLKPNQSSYKPIGKIDLQKVIAEEKAKEDPRLVQKPTAAGSKIDPSSDIANLKNESKLKRDSEFNSFLGTTKPPSMTESSLKNDDDKVIKGFRNEKSPAQLWAERKAKQNSGNAETKAEAPKPEVPEDEPEGEPDVKDLKSKFEGLAASEKEEEEMENKFAPPPKKSEPTIISPKPFSKPQEPVKAEEAEQPKTDYKKIGNPLPGMHIEADNEEEPEENDDDWDDDEDEAAQPPLPSRNVASGAPVQKEEPEQEEIAPSLPSRNSIPAPKQEEAPEQAPEEEIEEEAEEAAPQLPSRSSAAPPPPPRRATPEKKPKENPWATAEYDYDAAEDNELTFVENDKIINIEFVDDDWWLGELEKDGSKGLNPSNYVSLGN [chain 1 F583N] was below -3.06; that for chain 1 MALEPIDYTTHSREIDAEYLKIVRGSDPDTTWLIISPNAKKEYEPESTGSSFHDFLQLFDETKVQYGLARVSPPGSDVEKIIIIGWCPDSAPLKTRASFAANFAAVANNLFKGYHVQVTARDEDDLDENELLMKISNAAGARYSIQTSSKQQGKASTPPVKKSFTPSKSPAPVSKKEPVKTPSPAPAAKISSRVNDNNDDDDWNEPELKERDFDQAPLKPNQSSYKPIGKIDLQKVIAEEKAKEDPRLVQKPTAAGSKIDPSSDIANLKNESKLKRDSEFNSFLGTTKPPSMTESSLKNDDDKVIKGFRNEKSPAQLWAERKAKQNSGNAETKAEAPKPEVPEDEPEGEPDVKDLKSKFEGLAASEKEEEEMENKFAPPPKKSEPTIISPKPFSKPQEPVKAEEAEQPKTDYKKIGNPLPGMHIEADNEEEPEENDDDWDDDEDEAAQPPLPSRNVASGAPVQKEEPEQEEIAPSLPSRNSIPAPKQEEAPEQAPEEEIEEEAEEAAPQLPSRSSAAPPPPPRRATPEKKPKENPWATAEYDYDAAEDNELTFVENDKIINIEFVDDDWWLGELEKDGSKGLDPSNYVSLGN [chain 1 F583D] was below -3.06; that for chain 1 MALEPIDYTTHSREIDAEYLKIVRGSDPDTTWLIISPNAKKEYEPESTGSSFHDFLQLFDETKVQYGLARVSPPGSDVEKIIIIGWCPDSAPLKTRASFAANFAAVANNLFKGYHVQVTARDEDDLDENELLMKISNAAGARYSIQTSSKQQGKASTPPVKKSFTPSKSPAPVSKKEPVKTPSPAPAAKISSRVNDNNDDDDWNEPELKERDFDQAPLKPNQSSYKPIGKIDLQKVIAEEKAKEDPRLVQKPTAAGSKIDPSSDIANLKNESKLKRDSEFNSFLGTTKPPSMTESSLKNDDDKVIKGFRNEKSPAQLWAERKAKQNSGNAETKAEAPKPEVPEDEPEGEPDVKDLKSKFEGLAASEKEEEEMENKFAPPPKKSEPTIISPKPFSKPQEPVKAEEAEQPKTDYKKIGNPLPGMHIEADNEEEPEENDDDWDDDEDEAAQPPLPSRNVASGAPVQKEEPEQEEIAPSLPSRNSIPAPKQEEAPEQAPEEEIEEEAEEAAPQLPSRSSAAPPPPPRRATPEKKPKENPWATAEYDYDAAEDNELTFVENDKIINIEFVDDDWWLGELEKDGSKGLKPSNYVSLGN [chain 1 F583K] was below -3.06. The value for chain 1 MALEPIDYTTHSREIDAEYLKIVRGSDPDTTWLIISPNAKKEYEPESTGSSFHDFLQLFDETKVQYGLARVSPPGSDVEKIIIIGWCPDSAPLKTRASFAANFAAVANNLFKGYHVQVTARDEDDLDENELLMKISNAAGARYSIQTSSKQQGKASTPPVKKSFTPSKSPAPVSKKEPVKTPSPAPAAKISSRVNDNNDDDDWNEPELKERDFDQAPLKPNQSSYKPIGKIDLQKVIAEEKAKEDPRLVQKPTAAGSKIDPSSDIANLKNESKLKRDSEFNSFLGTTKPPSMTESSLKNDDDKVIKGFRNEKSPAQLWAERKAKQNSGNAETKAEAPKPEVPEDEPEGEPDVKDLKSKFEGLAASEKEEEEMENKFAPPPKKSEPTIISPKPFSKPQEPVKAEEAEQPKTDYKKIGNPLPGMHIEADNEEEPEENDDDWDDDEDEAAQPPLPSRNVASGAPVQKEEPEQEEIAPSLPSRNSIPAPKQEEAPEQAPEEEIEEEAEEAAPQLPSRSSAAPPPPPRRATPEKKPKENPWATAEYDYDAAEDNELTFVENDKIINIEFVDDDWWLGELEKDGSKGLGPSNYVSLGN [chain 1 F583G] was below -3.06; that for chain 1 MALEPIDYTTHSREIDAEYLKIVRGSDPDTTWLIISPNAKKEYEPESTGSSFHDFLQLFDETKVQYGLARVSPPGSDVEKIIIIGWCPDSAPLKTRASFAANFAAVANNLFKGYHVQVTARDEDDLDENELLMKISNAAGARYSIQTSSKQQGKASTPPVKKSFTPSKSPAPVSKKEPVKTPSPAPAAKISSRVNDNNDDDDWNEPELKERDFDQAPLKPNQSSYKPIGKIDLQKVIAEEKAKEDPRLVQKPTAAGSKIDPSSDIANLKNESKLKRDSEFNSFLGTTKPPSMTESSLKNDDDKVIKGFRNEKSPAQLWAERKAKQNSGNAETKAEAPKPEVPEDEPEGEPDVKDLKSKFEGLAASEKEEEEMENKFAPPPKKSEPTIISPKPFSKPQEPVKAEEAEQPKTDYKKIGNPLPGMHIEADNEEEPEENDDDWDDDEDEAAQPPLPSRNVASGAPVQKEEPEQEEIAPSLPSRNSIPAPKQEEAPEQAPEEEIEEEAEEAAPQLPSRSSAAPPPPPRRATPEKKPKENPWATAEYDYDAAEDNELTFVENDKIINIEFVDDDWWLGELEKDGSKGLPPSNYVSLGN [chain 1 F583P] was below -3.06; that for chain 1 MALEPIDYTTHSREIDAEYLKIVRGSDPDTTWLIISPNAKKEYEPESTGSSFHDFLQLFDETKVQYGLARVSPPGSDVEKIIIIGWCPDSAPLKTRASFAANFAAVANNLFKGYHVQVTARDEDDLDENELLMKISNAAGARYSIQTSSKQQGKASTPPVKKSFTPSKSPAPVSKKEPVKTPSPAPAAKISSRVNDNNDDDDWNEPELKERDFDQAPLKPNQSSYKPIGKIDLQKVIAEEKAKEDPRLVQKPTAAGSKIDPSSDIANLKNESKLKRDSEFNSFLGTTKPPSMTESSLKNDDDKVIKGFRNEKSPAQLWAERKAKQNSGNAETKAEAPKPEVPEDEPEGEPDVKDLKSKFEGLAASEKEEEEMENKFAPPPKKSEPTIISPKPFSKPQEPVKAEEAEQPKTDYKKIGNPLPGMHIEADNEEEPEENDDDWDDDEDEAAQPPLPSRNVASGAPVQKEEPEQEEIAPSLPSRNSIPAPKQEEAPEQAPEEEIEEEAEEAAPQLPSRSSAAPPPPPRRATPEKKPKENPWATAEYDYDAAEDNELTFVENDKIINIEFVDDDWWLGELEKDGSKGLHPSNYVSLGN [chain 1 F583H] was below -3.06. The value for chain 1 MALEPIDYTTHSREIDAEYLKIVRGSDPDTTWLIISPNAKKEYEPESTGSSFHDFLQLFDETKVQYGLARVSPPGSDVEKIIIIGWCPDSAPLKTRASFAANFAAVANNLFKGYHVQVTARDEDDLDENELLMKISNAAGARYSIQTSSKQQGKASTPPVKKSFTPSKSPAPVSKKEPVKTPSPAPAAKISSRVNDNNDDDDWNEPELKERDFDQAPLKPNQSSYKPIGKIDLQKVIAEEKAKEDPRLVQKPTAAGSKIDPSSDIANLKNESKLKRDSEFNSFLGTTKPPSMTESSLKNDDDKVIKGFRNEKSPAQLWAERKAKQNSGNAETKAEAPKPEVPEDEPEGEPDVKDLKSKFEGLAASEKEEEEMENKFAPPPKKSEPTIISPKPFSKPQEPVKAEEAEQPKTDYKKIGNPLPGMHIEADNEEEPEENDDDWDDDEDEAAQPPLPSRNVASGAPVQKEEPEQEEIAPSLPSRNSIPAPKQEEAPEQAPEEEIEEEAEEAAPQLPSRSSAAPPPPPRRATPEKKPKENPWATAEYDYDAAEDNELTFVENDKIINIEFVDDDWWLGELEKDGSKGLQPSNYVSLGN [chain 1 F583Q] was below -3.06. chain 1 MALEPIDYTTHSREIDAEYLKIVRGSDPDTTWLIISPNAKKEYEPESTGSSFHDFLQLFDETKVQYGLARVSPPGSDVEKIIIIGWCPDSAPLKTRASFAANFAAVANNLFKGYHVQVTARDEDDLDENELLMKISNAAGARYSIQTSSKQQGKASTPPVKKSFTPSKSPAPVSKKEPVKTPSPAPAAKISSRVNDNNDDDDWNEPELKERDFDQAPLKPNQSSYKPIGKIDLQKVIAEEKAKEDPRLVQKPTAAGSKIDPSSDIANLKNESKLKRDSEFNSFLGTTKPPSMTESSLKNDDDKVIKGFRNEKSPAQLWAERKAKQNSGNAETKAEAPKPEVPEDEPEGEPDVKDLKSKFEGLAASEKEEEEMENKFAPPPKKSEPTIISPKPFSKPQEPVKAEEAEQPKTDYKKIGNPLPGMHIEADNEEEPEENDDDWDDDEDEAAQPPLPSRNVASGAPVQKEEPEQEEIAPSLPSRNSIPAPKQEEAPEQAPEEEIEEEAEEAAPQLPSRSSAAPPPPPRRATPEKKPKENPWATAEYDYDAAEDNELTFVENDKIINIEFVDDDWWLGELEKDGSKGLRPSNYVSLGN [chain 1 F583R]: the screen value is -3.02.
